Assay results as given in the supplement of paper PMC5998384.

Tests used:
[1] = system: HeLa Kyoto; experiment: solubility in G1/S (NP-40 vs SDS abundance) (log2 ratio); higher = more soluble; details: cell cycle stage: G1/S
[2] = system: HeLa Kyoto; experiment: solubility change mitosis vs G1/S (difference of NP-40 vs SDS log2 ratios) (log2 ratio difference); higher = more soluble in mitosis
[3] = system: HeLa Kyoto; experiment: melting temperature (median over replicates), in situ; higher = more thermally stable
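Wherever melting temperature (median over replicates), in situ is given: HeLa Kyoto cells synchronized by double thymidine or nocodazole block, proteins quantified by TMT10plex mass spectrometry, three independent biological replicates.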
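Wherever solubility change mitosis vs G1/S (difference of NP-40 vs SDS log2 ratios) is given: synchronized HeLa Kyoto cells (double thymidine block for G1/S, nocodazole release for mitosis), protein amounts in NP-40 versus SDS lysates quantified by mass spectrometry, three biological replicates.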
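Wherever solubility in G1/S (NP-40 vs SDS abundance) is given: HeLa Kyoto cells arrested at G1/S by double thymidine block, proteins quantified by TMT10plex mass spectrometry in mild NP-40 versus SDS extracts, three biological replicates.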

Sequence	solubility in G1/S (log2) [1]	solubility change mitosis (log2) [2]	melting temperature ([3]; cell cycle stage: mitosis)	melting temperature ([3]; cell cycle stage: G1/S)
MNSTEFTEDVEEVLKSITVKVETEAEDAALDCSVNSRTSEKHSVDSVLTALQDSSKRKQLVSDGLLDSVPGVKRRRLIPEALLAGMRNRENSSPCQGNGEQAGRGRSLGNVWPGEEEPCNDATTPSYKKPLYGISHKIMEKKNPPSGDLLNVYELFEKANASNSPSSLRLLNEPQKRDCGSTGAGTDNDPNIYFLIQKMFYMLNTLTSNMSQLHSKVDLLSLEVSRIKKQVSPTEMVAKFQPPPEYQLTAAELKQIVDQSLSGGDLACRLLVQLFPELFSDVDFSRGCSACGFAAKRKLESLHLQLIRNYVEVYYPSVKDTAVWQAECLPQLNDFFSRFWAQREMEDSQPSGQVASFFEAEQVDPGHFLDNKDQEEALSLDRSSTIASDHVVDTQDLTEFLDEASSPGEFAVFLLHRLFPELFDHRKLGEQYSCYGDGGKQELDPQRLQIIRNYTEIYFPDMQEEEAWLQQCAQRINDELEGLGLDAGSEGDPPRDDCYDSSSLPDDISVVKVEDSFEGERPGRRSKKIWLVPIDFDKLEIPQPDFEVPGADCLLSKEQLRSIYESSLSIGNFASRLLVHLFPELFTHENLRKQYNCSGSLGKKQLDPSRIKLIRHYVQLLYPRAKNDRVWTLEFVGKLDERCRRRDTEQRRSYQQQRKVHVPGPECRDLTSYAINPERFREEFEGPPLPPERSSKDFCKIPLDELVVPSPDFPVPSPYLLSDKEVREIVQQSLSVGNFAARLLVRLFPELFTAENLRLQYNHSGACNKKQLDPTRLRLIRHYVEAVYPVEKMEEVWHYECIPSIDERCRRPNRKKCDILKKAKKVEK [BEND3]	-0.105	0.152	48.1 °C	
METPGASASSLLLPAASRPPRKREAGEAGAATSKQRVLDEEEYIEGLQTVIQRDFFPDVEKLQAQKEYLEAEENGDLERMRQIAIKFGSALGKMSREPPPPYVTPATFETPEVHAGTGVVGNKPRPRGRGLEDGEAGEEEEKEPLPSLDVFLSRYTSEDNASFQEIMEVAKERSRARHAWLYQAEEEFEKRQKDNLELPSAEHQAIESSQASVETWKYKAKNSLMYYPEGVPDEEQLFKKPRQVVHKNTRFLRDPFSQALSRCQLQQAAALNAQHKQGKVGPDGKELIPQESPRVGGFGFVATPSPAPGVNESPMMTWGEVENTPLRVEGSETPYVDRTPGPAFKILEPGRRERLGLKMANEAAAKNRAKKQEALRRVTENLASLTPKGLSPAMSPALQRLVSRTASKYTDRALRASYTPSPARSTHLKTPASGLQTPTSTPAPGSATRTPLTQDPASITDNLLQLPARRKASDFF [DGCR14]	0.334	0.458	52.4 °C	50 °C
MSVAGLKKQFHKATQKVSEKVGGAEGTKLDDDFKEMERKVDVTSRAVMEIMTKTIEYLQPNPASRAKLSMINTMSKIRGQEKGPGYPQAEALLAEAMLKFGRELGDDCNFGPALGEVGEAMRELSEVKDSLDIEVKQNFIDPLQNLHDKDLREIQHHLKKLEGRRLDFDYKKKRQGKIPDEELRQALEKFDESKEIAESSMFNLLEMDIEQVSQLSALVQAQLEYHKQAVQILQQVTVRLEERIRQASSQPRREYQPKPRMSLEFPTGDSTQPNGGLSHTGTPKPSGVQMDQPCCRALYDFEPENEGELGFKEGDIITLTNQIDENWYEGMLHGHSGFFPINYVEILVALPH [SH3GL2]	0.586	-0.159	49.2 °C	48.7 °C
MGEDAAQAEKFQHPGSDMRQEKPSSPSPMPSSTPSPSLNLGNTEEAIRDNSQVNAVTVLTLLDKLVNMLDAVQENQHKMEQRQISLEGSVKGIQNDLTKLSKYQASTSNTVSKLLEKSRKVSAHTRAVKERMDRQCAQVKRLENNHAQLLRRNHFKVLIFQEENEIPASVFVKQPVSGAVEGKEELPDENKSLEETLHTVDLSSDDDLPHDEEALEDSAEEKVEESRAEKIKRSSLKKVDSLKKAFSRQNIEKKMNKLGTKIVSVERREKIKKSLTSNHQKISSGKSSPFKVSPLTFGRKKVREGESHAENETKSEDLPSSEQMPNDQEEESFAEGHSEASLASALVEGEIAEEAAEKATSRGSNSGMDSNIDLTIVEDEEEESVALEQAQKVRYEGSYALTSEEAERSDGDPVQPAVLQVHQTS [SDPR]	-0.0681	0.043	53.4 °C	53.9 °C
MRCCHICKLPGRVMGIRVLRLSLVVILVLLLVAGALTALLPSVKEDKMLMLRREIKSQGKSTMDSFTLIMQTYNRTDLLLKLLNHYQAVPNLHKVIVVWNNIGEKAPDELWNSLGPHPIPVIFKQQTANRMRNRLQVFPELETNAVLMVDDDTLISTPDLVFAFSVWQQFPDQIVGFVPRKHVSTSSGIYSYGSFEMQAPGSGNGDQYSMVLIGASFFNSKYLELFQRQPAAVHALIDDTQNCDDIAMNFIIAKHIGKTSGIFVKPVNMDNLEKETNSGYSGMWHRAEHALQRSYCINKLVNIYDSMPLRYSNIMISQFGFPYANYKRKI [EXTL2]	0.132	-0.23	58.5 °C	56.7 °C
MAGPESDAQYQFTGIKKYFNSYTLTGRMNCVLATYGSIALIVLYFKLRSKKTPAVKAT [USMG5]	-1.21	-0.0955	52.6 °C	55 °C
MDPLFQQTHKQVHEIQSCMGRLETADKQSVHIVENEIQASIDQIFSRLERLEILSSKEPPNKRQNARLRVDQLKYDVQHLQTALRNFQHRRHAREQQERQREELLSRTFTTNDSDTTIPMDESLQFNSSLQKVHNGMDDLILDGHNILDGLRTQRLTLKGTQKKILDIANMLGLSNTVMRLIEKRAFQDKYFMIGGMLLTCVVMFLVVQYLT [GOSR2]	0.00468	0.0667	51.4 °C	51.8 °C
MSVQSSSGSLEGPPSWSQLSTSPTPGSAAAARSLLNHTPPSGRPREGAMDELHSLDPRRQELLEARFTGVASGSTGSTGSCSVGAKASTNNESSNHSFGSLGSLSDKESETPEKKQSESSRGRKRKAENQNESSQGKSIGGRGHKISDYFEYQGGNGSSPVRGIPPAIRSPQNSHSHSTPSSSVRPNSPSPTALAFGDHPIVQPKQLSFKIIQTDLTMLKLAALESNKIQDLEKKEGRIDDLLRANCDLRRQIDEQQKLLEKYKERLNKCISMSKKLLIEKSTQEKLSSREKSMQDRLRLGHFTTVRHGASFTEQWTDGFAFQNLVKQQEWVNQQREDIERQRKLLAKRKPPTANNSQAPSTNSEPKQRKNKAVNGAENDPFVRPNLPQLLTLAEYHEQEEIFKLRLGHLKKEEAEIQAELERLERVRNLHIRELKRINNEDNSQFKDHPTLNERYLLLHLLGRGGFSEVYKAFDLYEQRYAAVKIHQLNKSWRDEKKENYHKHACREYRIHKELDHPRIVKLYDYFSLDTDTFCTVLEYCEGNDLDFYLKQHKLMSEKEARSIVMQIVNALRYLNEIKPPIIHYDLKPGNILLVDGTACGEIKITDFGLSKIMDDDSYGVDGMDLTSQGAGTYWYLPPECFVVGKEPPKISNKVDVWSVGVIFFQCLYGRKPFGHNQSQQDILQENTILKATEVQFPVKPVVSSEAKAFIRRCLAYRKEDRFDVHQLANDPYLLPHMRRSNSSGNLHMAGLTASPTPPSSSIITY [TLK1]	0.061	-0.0453	53.3 °C	50.1 °C
MTRGNQRELARQKNMKKQSDSVKGKRRDDGLSAAARKQRDSEIMQQKQKKANEKKEEPK [SERF2]	0.752	0.151		57.5 °C
MSSSSSSPRETYEEDREYESQAKRLKTEEGEIDYSAEEGENRREATPRGGGDGGGGGRSFSQPEAGGSHHKVSVSPVVHVRGLCESVVEADLVEALEKFGTICYVMMMPFKRQALVEFENIDSAKECVTFAADEPVYIAGQQAFFNYSTSKRITRPGNTDDPSGGNKVLLLSIQNPLYPITVDVLYTVCNPVGKVQRIVIFKRNGIQAMVEFESVLCAQKAKAALNGADIYAGCCTLKIEYARPTRLNVIRNDNDSWDYTKPYLGRRDRGKGRQRQAILGEHPSSFRHDGYGSHGPLLPLPSRYRMGSRDTPELVAYPLPQASSSYMHGGNPSGSVVMVSGLHQLKMNCSRVFNLFCLYGNIEKVKFMKTIPGTALVEMGDEYAVERAVTHLNNVKLFGKRLNVCVSKQHSVVPSQIFELEDGTSSYKDFAMSKNNRFTSAGQASKNIIQPPSCVLHYYNVPLCVTEETFTKLCNDHEVLTFIKYKVFDAKPSAKTLSGLLEWECKTDAVEALTALNHYQIRVPNGSNPYTLKLCFSTSSHL [HNRPLL]	-0.0931	-0.0114	49.7 °C	47.6 °C
MTNEEPLPKKVRLSETDFKVMARDELILRWKQYEAYVQALEGKYTDLNSNDVTGLRESEEKLKQQQQESARRENILVMRLATKEQEMQECTTQIQYLKQVQQPSVAQLRSTMVDPAINLFFLKMKGELEQTKDKLEQAQNELSAWKFTPDSQTGKKLMAKCRMLIQENQELGRQLSQGRIAQLEAELALQKKYSEELKSSQDELNDFIIQLDEEVEGMQSTILVLQQQLKETRQQLAQYQQQQSQASAPSTSRTTASEPVEQSEATSKDCSRLTNGPSNGSSSRQRTSGSGFHREGNTTEDDFPSSPGNGNKSSNSSEERTGRGGSGYVNQLSAGYESVDSPTGSENSLTHQSNDTDSSHDPQEEKAVSGKGNRTVGSRHVQNGLDSSVNVQGSVL [WTAP]	-0.0275	0.772	50.3 °C	48.9 °C
MGPPRHPQAGEIEAGGAGGGRRLQVEMSSQQFPRLGAPSTGLSQAPSQIANSGSAGLINPAATVNDESGRDSEVSAREHMSSSSSLQSREEKQEPVVVRPYPQVQMLSTHHAVASATPVAVTAPPAHLTPAVPLSFSEGLMKPPPKPTMPSRPIAPAPPSTLSLPPKVPGQVTVTMESSIPQASAIPVATISGQQGHPSNLHHIMTTNVQMSIIRSNAPGPPLHIGASHLPRGAAAAAVMSSSKVTTVLRPTSQLPNAATAQPAVQHIIHQPIQSRPPVTTSNAIPPAVVATVSATRAQSPVITTTAAHATDSALSRPTLSIQHPPSAAISIQRPAQSRDVTTRITLPSHPALGTPKQQLHTMAQKTIFSTGTPVAAATVAPILATNTIPSATTAGSVSHTQAPTSTIVTMTVPSHSSHATAVTTSNIPVAKVVPQQITHTSPRIQPDYPAERSSLIPISGHRASPNPVAMETRSDNRPSVPVQFQYFLPTYPPSAYPLAAHTYTPITSSVSTIRQYPVSAQAPNSAITAQTGVGVASTVHLNPMQLMTVDASHARHIQGIQPAPISTQGIQPAPIGTPGIQPAPLGTQGIHSATPINTQGLQPAPMGTQQPQPEGKTSAVVLADGATIVANPISNPFSAAPAATTVVQTHSQSASTNAPAQGSSPRPSILRKKPATDGAKPKSEIHVSMATPVTVSMETVSNQNNDQPTIAVPPTAQQPPPTIPTMIAAASPPSQPAVALSTIPGAVPITPPITTIAAAPPPSVTVGGSLSSVLGPPVPEIKVKEEVEPMDIMRPVSAVPPLATNTVSPSLALLANNLSMPTSDLPPGASPRKKPRKQQHVISTEEGDMMETNSTDDEKSTAKSLLVKAEKRKSPPKEYIDEEGVRYVPVRPRPPITLLRHYRNPWKAAYHHFQRYSDVRVKEEKKAMLQEIANQKGVSCRAQGWKVHLCAAQLLQLTNLEHDVYERLTNLQEGIIPKKKAATDDDLHRINELIQGNMQRCKLVMDQISEARDSMLKVLDHKDRVLKLLNKNGTVKKVSKLKRKEKV [SAP130]	0.147	-0.0185	50 °C	50.5 °C
